Legend:
Npun02004178 protein = target: T1, Npun02004178 protein (Nostoc punctiforme, UniProt B2J1M1); assay: In-vitro fatty aldehyde decarbonylase assay; type: biochemical, Nostoc punctiforme PCC73102
T1 construct: made in house; host or cells: E. coli BL21 (DE3)
T1 sequence (B2J1M1 1-232): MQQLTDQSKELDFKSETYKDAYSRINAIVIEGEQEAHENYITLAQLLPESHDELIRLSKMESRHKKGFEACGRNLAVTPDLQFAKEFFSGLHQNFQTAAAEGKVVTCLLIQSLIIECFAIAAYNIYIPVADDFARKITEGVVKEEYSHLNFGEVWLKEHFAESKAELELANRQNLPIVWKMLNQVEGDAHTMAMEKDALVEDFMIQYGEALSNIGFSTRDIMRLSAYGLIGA
Description: The genomic DNA encoding N. punctiforme PCC73102 Npun02004178 (SEQ ID NO:5) was cloned into the NdeI and XhoI sites of vector pET-15b under the control of the T7 promoter. The resulting Npun02004178 protein contained an N-terminal His-tag. An E. coli BL21 strain (DE3) (Invitrogen) was transformed with the plasmid by routine chemical transformation techniques. Protein expression was carried out by first inoculating a colony of the E. coli strain in 5 mL of LB media supplemented with 100 mg/L of carbenicillin and shaken overnight at 37° C. to produce a starter culture. This starter cultures was used to inoculate 0.5 L of LB media supplemented with 100 mg/L of carbenicillin. […] Protein concentration was determined using the Bradford assay (Biorad). […]
To test Npun02004178 protein for decarbonylation activity, the following enzyme assays were set-up. […] Samples were analyzed by GC/MS using the following parameters: run time: 13.13 min; column: HP-5-MS Part No. 19091S-433E (length of 30 meters; I.D.: 0.25 mm narrowbore; film: 0.25 ìM); inject: 1 ìl Agilent 6850 inlet; inlet: 300 C splitless; carrier gas: helium; flow: 1.3 mL/min; oven temp: 75° C. hold 5 min, 320 at 40° C./min, 320 hold 2 min; det: Agilent 5975B VL MSD; det. temp: 330° C.; scan: 50-550 M/Z. Heptadecane from Sigma was used as an authentic reference for determining compound retention time and fragmentation pattern. […]

E. coli MG1655 = assay: Heterologous expression of aldehyde-generating enzyme alone in E. coli, GC-MS of fatty aldehydes and fatty alcohols; type: cell-based
Description: The genomic DNA encoding Synechococcus elongatus PCC7942 orf1594 (YP_400611; putative aldehyde-generating enzyme) (SEQ ID NO:65) was amplified and cloned into the NcoI and EcoRI sites of vector OP-80 (pCL1920 derivative) under the control of the Ptrc promoter. The resulting construct (“OP80-PCC7942_1594”) was transformed into E. coli MG1655 and the cells were grown at 37° C. in M9 minimal media with 1% (w/v) glucose as carbon source and supplemented with 100 μg/mL spectinomycin. When the culture reached OD600 of 0.8-1.0, it was induced with 1 mM IPTG and cells were grown for an additional 18-20 h at 37° C. Cells from 0.5 mL of culture were extracted with 0.5 mL of ethyl acetate. After sonication for 60 min, the sample was centrifuged at 15,000 rpm for 5 min. The solvent layer was analyzed by GC-MS as described in Example 1.
The genomic DNA encoding Cyanothece sp. ATCC51142 cce_1430 (YP_001802846; putative aldehyde-generating enzyme) (SEQ ID NO:69) was amplified and cloned into the NcoI and EcoRI sites of vector OP-80 (pCL1920 derivative) under the control of the Ptrc promoter. The resulting construct was transformed into E. coli MG1655 and the cells were grown at 37° C. in M9 minimal media with 1% (w/v) glucose as carbon source and supplemented with 100 μg/mL spectinomycin. The cells were cultured and extracted as in Example 3 and analyzed by GC-MS as described in Example 26.
The genomic DNA encoding P. mariunus CCMP1986 PMM0533 (NP_892651; putative aldehyde-generating enzyme) (SEQ ID NO:71) and Prochlorococcus mariunus CCMP1986 PMM0532 (NP_892650; putative decarbonylase) (SEQ ID NO:19) were amplified and cloned into the NcoI and EcoRI sites of vector OP-80 and the NdeI and XhoI sites of vector OP-183, respectively. The resulting constructs were separately transformed and cotransformed into E. coli MG1655 and the cells were grown at 37° C. in M9 minimal media supplemented with 100 μg/mL spectinomycin and 100 μg/mL carbenicillin. The cells were cultured and extracted as in Example 3 and analyzed by GC-MS as described in Example 26.
The genomic DNA encoding Synechocystis sp. PCC6803 sll0208 (NP_442147; putative fatty aldehyde decarbonylase) (SEQ ID NO:3) was synthesized and cloned into the NdeI and XhoI sites of vector OP-183 (pACYC derivative) under the control of the Ptrc promoter. The genomic DNA encoding Synechocystis sp. PCC6803 sll0209 (NP_442146; acyl-ACP reductase) (SEQ ID NO:67) was synthesized and cloned into the NcoI and EcoRI sites of vector OP-183 (pACYC derivative) under the control of the Ptrc promoter. The resulting constructs were cotransformed with into E. coli MG1655 ΔfadE lacZ::Ptrc ′tesA-fadD. […] The cells were cultured and extracted as in Example 3 and analyzed by GC-MS as described in Example 26.

[1] = enzyme expressed alone in E. coli MG1655

CCCCCCCCCCCCCCCCCC=O [octadecanal]
in-vitro conversion of octadecanal to heptadecane (Npun02004178 protein; 30 μM Npun02004178, 200 μM octadecanal, spinach ferredoxin, spinach ferredoxin reductase, 1 mM NADPH, 37° C., 2 h): conversion of octadecanal to heptadecane was observed
in-vitro conversion of octadecanal to heptadecane (Npun02004178 protein; NADPH, cyanobacterial ferredoxin oxidoreductase and any of the three cyanobacterial ferredoxins): conversion of octadecanal to heptadecane was observed

B1: ATCC51142 cce_1430: Cyanothece sp. ATCC51142 cce_1430, putative aldehyde-generating enzyme (protein, listed as Cyanothece sp.)
chain: MFGLIGHLTSLEHAHSVADAFGYGPYATQGLDLWCSAPPQFVEHFHVTSITGQTIEGKYIESAFLPEMLIKRRIKAAIRKILNAMAFAQKNNLNITALGGFSSIIFEEFNLKENRQVRNVSLEFDRFTTGNTHTAYIICRQVEQASAKLGIDLSQATVAICGATGDIGSAVCRWLDRKTDTQELFLIARNKERLQRLQDELGRGKIMGLEEALPEADIIVWVASMPKGVEINAETLKKPCLIIDGGYPKNLDTKIKHPDVHILKGGIVEHSLDIDWKIMETVNMDVPSRQMFACFAEAILLEFEQWHTNFSWGRNQITVTKMEQIGEASVKHGLQPLLSW
production of fatty aldehydes and fatty alcohols (E. coli MG1655; [1]): generates aldehydes in-vivo

B2: PMM0533: P. mariunus CCMP1986 PMM0533, putative aldehyde-generating enzyme (protein, listed as Prochlorococcus marinus)
chain: MFGLIGHSTSFEDAKRKASLLGFDHIADGDLDVWCTAPPQLVENVEVKSAIGISIEGSYIDSCFVPEMLSRFKTARRKVLNAMELAQKKGINITALGGFTSIIFENFNLLQHKQIRNTSLEWERFTTGNTHTAWVICRQLEMNAPKIGIDLKSATVAVVGATGDIGSAVCRWLINKTGIGELLLVARQKEPLDSLQKELDGGTIKNLDEALPEADIVVWVASMPKTMEIDANNLKQPCLMIDGGYPKNLDEKFQGNNIHVVKGGIVRFFNDIGWNMMELAEMQNPQREMFACFAEAMILEFEKCHTNFSWGRNNISLEKMEFIGAASVKHGFSAIGLDKHPKVLAV
production of fatty aldehydes and fatty alcohols (E. coli MG1655; [1]): did not produce any fatty aldehydes or fatty alcohols

B3: sll0209: Synechocystis sp. PCC6803 sll0209, acyl-ACP reductase (protein, listed as Synechocystis sp.)
chain: MFGLIGHLTSLEHAQAVAEDLGYPEYANQGLDFWCSAPPQVVDNFQVKSVTGQVIEGKYVESCFLPEMLTQRRIKAAIRKILNAMALAQKVGLDITALGGFSSIVFEEFNLKQNNQVRNVELDFQRFTTGNTHTAYVICRQVESGAKQLGIDLSQATVAVCGATGDIGSAVCRWLDSKHQVKELLLIARNRQRLENLQEELGRGKIMDLETALPQADIIVWVASMPKGVEIAGEMLKKPCLIVDGGYPKNLDTRVKADGVHILKGGIVEHSLDITWEIMKIVEMDIPSRQMFACFAEAILLEFEGWRTNFSWGRNQISVNKMEAIGEASVKHGFCPLVAL
production of fatty aldehydes and fatty alcohols (E. coli MG1655; enzyme expressed alone in E. coli MG1655 ΔfadE lacZ::Ptrc ′tesA-fadD (fatty acyl-CoA-producing)): did not produce any fatty aldehydes or fatty alcohols

B4: PCC7942 orf1594: Synechococcus elongatus PCC7942 orf1594, putative aldehyde-generating enzyme, named Acyl-ACP reductase (protein, listed as Synechococcus elongatus)
chain: MFGLIGHLTSLEQARDVSRRMGYDEYADQGLEFWSSAPPQIVDEITVTSATGKVIHGRYIESCFLPEMLAARRFKTATRKVLNAMSHAQKHGIDISALGGFTSIIFENFDLASLRQVRDTTLEFERFTTGNTHTAYVICRQVEAAAKTLGIDITQATVAVVGATGDIGSAVCRWLDLKLGVGDLILTARNQERLDNLQAELGRGKILPLEAALPEADFIVWVASMPQGVVIDPATLKQPCVLIDGGYPKNLGSKVQGEGIYVLNGGVVEHCFDIDWQIMSAAEMARPERQMFACFAEAMLLEFEGWHTNFSWGRNQITIEKMEAIGEASVRHGFQPLALAI
production of fatty aldehydes and fatty alcohols (E. coli MG1655; [1]): generates aldehydes in-vivo

Reference: US9481899B2, “Methods and compositions for producing hydrocarbons” (priority 2008, dated 2016)
